# Measurements: patent US20190211076A1 (published 2019)
# Numbering of substitutions follows the chain as printed.
# T1: HMHA1 (Rho GTPase-activating protein 45), minor histocompatibility antigen HA-1H, R139H polymorphism peptide … (human)
# T1 peptide: VLHDDLLEA
# B1: TCR5 (TCR, V domains shown)
# Valpha: QQGEEDPQALSIQEGENATMNCSYKTSINNLQWYRQNSGRGLVHLILIRSNEREKHSGRLRVTLDTSKKSSSLLITASRAADTASYFCATNSGNTPLVFGKGTRLSVIA
# Vbeta: GVSQDPRHKITKRGQNVTFRCDPISEHNRLYWYRQTLGQGPEFLTYFQNEAQLEKSRLLSDRFSAERPKGSFSTLEIQRTEQGDSAMYLCASSLTTLDEQYVGPGTRLTVT
# B2: TCR10 (TCR, V domains shown)
# Valpha: KNQVEQSPQSLIILEGKNCTLQCNYTVSPFSNLRWYKQDTGRGPVSLTIMTFSENTKSNGRYTATLDADTKQSSLHITASQLSDSASYICVVDSGGGADGLTFGKGTHLIIQP
# Vbeta: B1 Vbeta with L94M, T95L, L97N, D98Y, V102F
# B3: TCR1 (TCR, V domains shown)
# Valpha: QQGEEDPQALSIQEGENATMNCSYKTSINNLQWYRQNSGRGLVHLILIRSNEREKHSGRLRVTLDTSKKSSSLLITASRAADTASYFCATKRDSGAGSYQLTFGKGTKLSVIP
# Vbeta: GVSQDPRHKITKRGQNVTFRCDPISEHNRLYWYRQTLGQGPEFLTYFQNEAQLEKSRLLSDRFSAERPKGSFSTLEIQRTEQGDSAMYLCASSSTGGHNEQFFGPGTRLTVL
# B4: HA-1H TCR2 (TCR, V domains shown)
# Valpha: KQEVTQIPAALSVPEGENLVLNCSFTDSAIYNLQWFRQDPGKGLTSLLLIQSSQREQTSGRLNASLDKSSGRSTLYIAASQPGDSATYLCAVIGLGGTYKYIFGTGTRLKVLA
# Vbeta: GVSQDPRHKITKRGQNVTFRCDPISEHNRLYWYRQTLGQGPEFLTYFQNEAQLEKSRLLSDRFSAERPKGSFSTLEIQRTEQGDSAMYLCASSLVKGEKLFFGSGTQLSVL
# B5: HA-1H TCR16 (TCR, V domains shown)
# Valpha: KQEVTQIPAALSVPEGENLVLNCSFTDSAIYNLQWFRQDPGKGLTSLLLIQSSQREQTSGRLNASLDKSSGRSTLYIAASQPGDSATYLCAVHLLNDYKLSFGAGTTVTVRA
# Vbeta: B1 Vbeta with T95V, T96V, L97G, D98N, Y101F, V102F, T111L
# Molecular target: T1, HMHA1 (Rho GTPase-activating protein …)
# Test: chromium release, peptide titration on pulsed target cells; one value stated for the seven clones together (FIG. 2B); T cell clone or line
# Experimental: (A) HLA-A2/HA-1^H multimer and CD8⁺ monoclonal antibody staining of seven (7) representative HA-1^H specific clones (1, 2, 10, 13, […], 16, and 5) and a control clone specific for another tumor antigen. (B) Data from a chromium release assay in which the seven HA-1^H-specific clones were tested for killing HA-1 peptide-pulsed target cells. (C) Data from cytotoxicity assays in which the HA-1^H-specific CTL clones were incubated with peptide-pulsed T2 cells, HA-1^H+ AML cell line THP-1, HA-1^H+ primary AML, or HA-1⁻ AML.
# In addition, a chromium release assay (CRA) was used to test 7 of the HA-1-specific CTL clones (1, 2, 10, 13, 14, 16 and 5) for killing of HA-1^H peptide-pulsed targets. The T cell clones recognized HA-1^H peptide ([…])-pulsed target cells at very low peptide concentrations and half-maximal lysis is seen at a peptide concentration of 10 pM. (FIG. 2B) (ICC data not shown). Cytotoxicity of the isolated clones against cells with or without endogenous HA-1^H expression was also examined. The assays show 7 HA-1^H-specific CTL clones (TCR1, TCR2, TCR10, TCR13, TCR14, TCR16 and TCR5) lysing HA-1^H+ acute myeloid leukemia (AML) cell line (THP-1) and HA-1^H+ primary AML but not HA-1^H- AML (FIG. 2C).
row,EC50 of peptide,Binder
1,0.01 nM,B1
2,0.01 nM,B2
3,0.01 nM,B3
4,0.01 nM,B4
5,0.01 nM,B5
